T1: rHuman Erythropoietin R/Fc Chimera, CF (R&D Systems Cat#963-ER) (human, UniProt P19235 25-250)
T1 construct: Bought recombinant protein; also called EPO R; EPO R/Fc; Fc part of the bought chimera not given
T1 sequence (looked up): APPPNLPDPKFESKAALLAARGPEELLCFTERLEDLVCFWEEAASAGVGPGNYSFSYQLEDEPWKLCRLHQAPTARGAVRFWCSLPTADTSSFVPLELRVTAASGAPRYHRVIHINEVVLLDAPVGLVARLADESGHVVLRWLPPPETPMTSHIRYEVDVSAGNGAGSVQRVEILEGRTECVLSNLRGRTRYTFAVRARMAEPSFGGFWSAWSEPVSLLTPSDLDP


Legend:
[1] = target: T1, rHuman Erythropoietin R/Fc Chimera, CF …; test: ECL multispot (MSD), antigen spotted on plate, Fab at 5.00 (column head: Fab [µM])
[2] = target: T2, Recombinant Human DLL4 (R&D Systems Cat#1506-D4/CF) (human, UniProt Q9NR61 27-524); test: as above
T2 construct: Bought recombinant protein; also called delta-like protein 4; rHuman DLL4

[3] = target: T3, rHuman ErbB2/Fc Chimera, CF (R&D Systems Cat#1129-ER) (human, UniProt P04626 23-652); test: as above
T3 construct: Bought recombinant protein; Fc part of the bought chimera not given

[4] = target: T4, rHuman EGF R/Fc Chimera, CF (R&D Systems Cat#344-ER) (human, UniProt P00533 25-645); test: as above
T4 construct: Bought recombinant protein; Fc part of the bought chimera not given

[5] = target: T5, rHuman HGF R/c-MET/Fc Chimera, CF (R&D Systems Cat#358-MT/CF) (human, UniProt P08581 25-932); test: as above
T5 construct: Bought recombinant protein; also called HGF R/Fc; Fc part of the bought chimera not given

[6] = target: T6, rHuman Notch-1/Fc Chimera, CF (R&D Systems Cat#3647-TK) (human, UniProt P46531 19-526); test: as above
T6 construct: Bought recombinant chimera; Fc part of the bought chimera not given

[7] = target: T7, rHuman CD44/Fc Chimera, CF (R&D Systems Cat#3660-CD) (human, UniProt P16070 21-220); test: as above
T7 construct: Bought recombinant protein; Fc part of the bought chimera not given

[8] = target: T8, rHuman IGF-1 sR (insulin-like growth factor-1 soluble receptor), CF (R&D Systems Cat#391-GR) (human, UniProt P08069 31-932); test: as above
T8 construct: Bought recombinant soluble receptor

[9] = target: T9, rHuman P-Cadherin/Fc Chimera, CF (R&D Systems Cat#861-PC) (human, UniProt P22223 108-654); test: as above
T9 construct: Bought recombinant protein; Fc part of the bought chimera not given

[10] = target: T5, rHuman HGF R/c-MET/Fc Chimera, CF (R&D …); test: ECL multispot (MSD), antigen spotted on plate, Fab at 50.00 (column head: Fab [µM])
[11] = target: T1, rHuman Erythropoietin R/Fc Chimera, CF …; test: ECL multispot (MSD), antigen spotted on plate, Fab at 500.00 (column head: Fab [µM])
[12] = target: T2, Recombinant Human DLL4 (R&D Systems …); test: as above
[13] = target: T3, rHuman ErbB2/Fc Chimera, CF (R&D …); test: as above
[14] = target: T4, rHuman EGF R/Fc Chimera, CF (R&D …); test: as above
[15] = target: T5, rHuman HGF R/c-MET/Fc Chimera, CF (R&D …); test: as above
[16] = target: T6, rHuman Notch-1/Fc Chimera, CF (R&D …); test: as above
[17] = target: T7, rHuman CD44/Fc Chimera, CF (R&D Systems …); test: as above
[18] = target: T8, rHuman IGF-1 sR (insulin-like growth …); test: as above
[19] = target: T9, rHuman P-Cadherin/Fc Chimera, CF (R&D …); test: as above

T5 sequence (P08581 25-932, change not shown): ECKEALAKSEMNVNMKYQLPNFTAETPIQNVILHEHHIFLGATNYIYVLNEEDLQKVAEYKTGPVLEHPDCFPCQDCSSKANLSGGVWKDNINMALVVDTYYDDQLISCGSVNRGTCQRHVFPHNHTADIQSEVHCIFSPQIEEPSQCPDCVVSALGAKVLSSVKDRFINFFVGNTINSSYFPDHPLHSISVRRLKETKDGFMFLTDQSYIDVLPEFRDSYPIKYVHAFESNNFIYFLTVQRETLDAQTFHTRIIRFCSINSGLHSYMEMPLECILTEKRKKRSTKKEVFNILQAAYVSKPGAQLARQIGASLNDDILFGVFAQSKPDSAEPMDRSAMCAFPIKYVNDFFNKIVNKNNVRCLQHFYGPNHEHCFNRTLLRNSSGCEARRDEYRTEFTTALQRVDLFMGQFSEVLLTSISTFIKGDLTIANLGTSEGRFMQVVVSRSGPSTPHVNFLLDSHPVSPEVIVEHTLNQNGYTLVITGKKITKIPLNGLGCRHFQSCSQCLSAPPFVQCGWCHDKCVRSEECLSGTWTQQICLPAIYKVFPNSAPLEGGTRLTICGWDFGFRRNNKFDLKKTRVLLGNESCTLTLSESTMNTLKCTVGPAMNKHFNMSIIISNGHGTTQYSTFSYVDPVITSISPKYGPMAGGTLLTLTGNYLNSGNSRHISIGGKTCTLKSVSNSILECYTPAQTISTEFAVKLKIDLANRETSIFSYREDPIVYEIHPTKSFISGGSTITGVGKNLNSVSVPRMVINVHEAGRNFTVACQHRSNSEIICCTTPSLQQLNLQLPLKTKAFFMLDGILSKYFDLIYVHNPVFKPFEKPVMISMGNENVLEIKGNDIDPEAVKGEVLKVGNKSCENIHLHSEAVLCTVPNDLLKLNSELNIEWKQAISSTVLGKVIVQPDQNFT

signal/noise ratio (ECL) [1]	signal/noise ratio (ECL) [2]	signal/noise ratio (ECL) [3]	signal/noise ratio (ECL) [4]	signal/noise ratio (ECL) [5]	signal/noise ratio (ECL) [6]	signal/noise ratio (ECL) [7]	signal/noise ratio (ECL) [8]	signal/noise ratio (ECL) [9]	signal/noise ratio (ECL) [10]	signal/noise ratio (ECL) [11]	signal/noise ratio (ECL) [12]	signal/noise ratio (ECL) [13]	signal/noise ratio (ECL) [14]	signal/noise ratio (ECL) [15]	signal/noise ratio (ECL) [16]	signal/noise ratio (ECL) [17]	signal/noise ratio (ECL) [18]	signal/noise ratio (ECL) [19]	Binder
1.1	32.5	1	1	0.9	0.8	1.3	1.1	0.9	0.6	0.8	16.2	0.3	0.7	0.3	0.8	0.4	0.4	0.2	Fab VH1-46_IGHD6-6*01_IGHJ1*01 & L6_IGKJ1*01 (Fab, V domains shown, Tested as a Fab expressed in E. coli; The heavy chain came from Plasmid A (CH1 with His6 and Flag tags) and the kappa light chain from Plasmid C (kappa CL); also called Wt; wildtype) VH: QVQLVQSGAEVKKPGASVKVSCKASGYTFTSYYMHWVRQAPGQGLEWMGIINPSGGSTSYAQKFQGRVTMTRDTSTSTVYMELSSLRSEDTAVYYCAREEYSSSSAEYFQHWGQGTLVTVSS VL: not shown
1.8	482	1.1	1.1	0.8	0.9	1.3	1.1	1	0.7	10.4	181	1.7	5.5	2.2	4.2	2.4	1.5	3.4	Fab VH1-46_IGHD6-6*01_IGHJ1*01 S102A/S103P/S104F (APF) & L6_IGKJ1*01 (Fab, V domains shown, Tested as a Fab expressed in E. coli; the constant parts (CH1 with His6/Flag tags, kappa CL) come from Plasmids A and C; also called APF triple mutant; H:APF & L:wt) VH: QVQLVQSGAEVKKPGASVKVSCKASGYTFTSYYMHWVRQAPGQGLEWMGIINPSGGSTSYAQKFQGRVTMTRDTSTSTVYMELSSLRSEDTAVYYCAREEYAPFSAEYFQHWGQGTLVTVSS VL: not shown
